According to FireProtDB (doi:10.1021/acs.biochem.7b00833):
Where “and” joins values, the source holds several entries; their conditions need not be identical. Equal values may be shown once.

B1: SCO1 protein homolog, P54178 (parent)
chain: MKVIKGLTAGLIFLFLCACGGQQIKDPLNYEVEPFTFQNQDGKNVSLESLKGEVWLADFIFTNCETICPPMTAHMTDLQKKLKAENIDVRIISFSVDPENDKPKQLKKFAANYPLSFDNWDFLTGYSQSEIEEFALKSFKAIVKKPEGEDQVIHQSSFYLVGPDGKVLKDYNGVENTPYDDIISDVKSASTLK

Variants of: B1
Settings: Bacillus subtilis (strain 168), pH 7, CD, Sodium Phosphate Buffer, structure 1XZO, whole UniProt chain shown; for ddG of mutation (higher = less stable) / denaturant m value / denaturant midpoint (higher = more stable) / unfolding free energy: 25 °C, Urea

MKVIKGLTAGLIFLFLCACGGQQIKDPLNYEVEPFTFQNQDGKNVSLESLKGEVALADFIWTNCETICPPMTAHMTDLQKKLKAENIDVRIISFSVDPENDKPKQLKKFAANYPLSFDNADFLTGYSQSEIEEFALKSFKAIVKKPEGEDQVIHQSSFYLVGPDGKVLKDYNGVENTPYDDIISDVKSASTLK
change of melting temperature, mutant - wild type (higher = more stable) (Thermal): -18 °C and -15.7 °C

MKVIKGLTAGLIFLFLCACGGQQIKDPLNYEVEPFTFQNQDGKNVSLESLKGEVWLADFIWTNCETICPPMTAHMTDLQKKLKAENIDVRIISFSVDPENDKPKQLKKFAANYPLSFDNFDFLTGYSQSEIEEFALKSFKAIVKKPEGEDQVIHQSSFYLVGPDGKVLKDYNGVENTPYDDIISDVKSASTLK
ddG of mutation (higher = less stable): 4.18 kcal/mol | denaturant m value: 3.17 kcal/mol/M | denaturant midpoint (higher = more stable): 1.81 M | unfolding free energy: 5.75 kcal/mol | change of melting temperature, mutant - wild type (higher = more stable) (Thermal): -7.1 °C and -11.5 °C

MKVIKGLTAGLIFLFLCACGGQQIKDPLNYEVEPFTFQNQDGKNVSLESLKGEVWLADFIFTNCETICPPMTAHMTDLQKKLKAENIDVRIISFSVDPENDKPKQLKKFAANYPLSFDNFDFLTGYSQSEIEEFALKSFKAIVKKPEGEDQVIHQSSFYLVGPDGKVLKDYNGVENTPYDDIISDVKSASTLK
ddG of mutation (higher = less stable): 2.89 kcal/mol | denaturant m value: 3.93 kcal/mol/M | denaturant midpoint (higher = more stable): 1.77 M | unfolding free energy: 7.04 kcal/mol | Tm (Thermal): 43.5 °C

MKVIKGLTAGLIFLFLCACGGQQIKDPLNYEVEPFTFQNQDGKNVSLESLKGEVWLADFIWTNCETICPPMTAHMTDLQKKLKAENIDVRIISFSVDPENDKPKQLKKFAANYPLSFDNWDFLTGYSQSEIEEFALKSFKAIVKKPEGEDQVIHQSSFYLVGPDGKVLKDYNGVENTPYDDIISDVKSASTLK
ddG of mutation (higher = less stable): -2.87 kcal/mol | denaturant m value: 4.24 kcal/mol/M | unfolding free energy: 12.8 kcal/mol | change of melting temperature, mutant - wild type (higher = more stable) (Thermal): 4.3 °C and -0.6 °C

MKVIKGLTAGLIFLFLCACGGQQIKDPLNYEVEPFTFQNQDGKNVSLESLKGEVFLADFIWTNCETICPPMTAHMTDLQKKLKAENIDVRIISFSVDPENDKPKQLKKFAANYPLSFDNWDFLTGYSQSEIEEFALKSFKAIVKKPEGEDQVIHQSSFYLVGPDGKVLKDYNGVENTPYDDIISDVKSASTLK
ddG of mutation (higher = less stable): 4.14 kcal/mol | denaturant m value: 3.37 kcal/mol/M | denaturant midpoint (higher = more stable): 1.72 M | unfolding free energy: 5.79 kcal/mol | change of melting temperature, mutant - wild type (higher = more stable) (Thermal): -6.2 °C and -9.1 °C

MKVIKGLTAGLIFLFLCACGGQQIKDPLNYEVEPFTFQNQDGKNVSLESLKGEVALADFIWTNCETICPPMTAHMTDLQKKLKAENIDVRIISFSVDPENDKPKQLKKFAANYPLSFDNWDFLTGYSQSEIEEFALKSFKAIVKKPEGEDQVIHQSSFYLVGPDGKVLKDYNGVENTPYDDIISDVKSASTLK
ddG of mutation (higher = less stable): 8.03 kcal/mol | denaturant m value: 3.74 kcal/mol/M | denaturant midpoint (higher = more stable): 0.8 M | unfolding free energy: 1.9 kcal/mol

MKVIKGLTAGLIFLFLCACGGQQIKDPLNYEVEPFTFQNQDGKNVSLESLKGEVALADFIFTNCETICPPMTAHMTDLQKKLKAENIDVRIISFSVDPENDKPKQLKKFAANYPLSFDNWDFLTGYSQSEIEEFALKSFKAIVKKPEGEDQVIHQSSFYLVGPDGKVLKDYNGVENTPYDDIISDVKSASTLK
ddG of mutation (higher = less stable): 8.93 kcal/mol | denaturant m value: 1.92 kcal/mol/M | denaturant midpoint (higher = more stable): 0.75 M | unfolding free energy: 1 kcal/mol
